Measured values published in patent US20070213253A1, “Synuclein Mutant Having Aggregation-Inhibitory Activity” (priority 2003, published 2007).

Target: T1, wild type α-synuclein (Homo sapiens, UniProt P37840)
T1 construct: made in house; host or cells: Escherichia coli (pTYB1/α-syn; strain ER2566 is named for the mutants)
Experiment: Inhibition of fibril formation of wild type α-synuclein by partial structure peptide, TfT fluorescence
Type: biochemical
Conditions: peptide 0.2 mg/ml in 2 mg/ml wild type α-synuclein, 37° C.
Protocol: A synthetic α-synuclein partial structure peptide consisting of 10 amino acid residues of NH2-[…]COOH was dissolved at 0.2 mg/ml in a 2 mg/ml solution of purified wild type α-synuclein, and incubated at 37° C. Aliquot of 10 μl was collected in predetermined intervals. To the collected sample was added a buffer solution of 10 mM Tris-HCl, pH 7.4, containing a fluorescent dye thioflavine T (TfT), which specifically binds to a fibril structure, in a final concentration of 25 μM to make a volume of 100 μl, and fluorescence spectrum was monitored immediately (Ex 440 nm; Em 450-550 nm). The fibril formation rate and the amount thereof were determined from the increase in the fluorescence intensity of TfT.

NH2-Val-Gly-Gly-Ala-Thr-Thr-Thr-Gly-Val-Thr-COOH (H-VGGATTTGVT-OH) [α-synuclein partial structure peptide, synthetic α-synuclein partial structure peptide consisting of 10 amino acid residues]
decrease of the fibril formation ability of the wild type α-synuclein (to the extent of): about 20%
